In the series the test system is HEK293T. As to the kind of experiment: median enrichment of reporter reads in eGFP-reduced (low/intermediate) vs eGFP-high sorted cells (eGFP-extension fusion abundance) (ratio); higher = stronger loss of eGFP-fusion protein abundance (more destabilising extension).
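Note: lentiviral eGFP-IRES-mCherry reporter pool sorted by FACS 96 h post-transduction, gated on mCherry-high cells, Illumina read counts normalized per million, median across four biological replicates.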

Regarding “WQGLPQHQSGDCDREGLAGTPRASGVVTDQEGLARTSANICGAAANNAAITENMVLVLKNVQCHFQQFKINRQNHPVARIT [OR2T2]”, the median enrichment stood at 6.25.
Take QHLQEEEEKEGTPDWI [GPR158]: the median enrichment was 1.29.
Take NNNN [Asn04]: the median enrichment came to 0.299.
On to RSNLYVLPKKPKTAFD [C2orf15], for which the median enrichment amounted to 1.27.
For RFLVTA [GXYLT1] the value was 2.37; for “CGGLVSELGLCRESLFCVSHPLPDPSLCLYSLNSVEFN [MCM3]”, 13.4.
Consider “LDPQVPLSKAENVHIPHWHFPKDKNCPRHILSV [VSX1]”, for which the median enrichment is 10.
As to QQQQ [Gln04], the median enrichment is 0.501.
For QHLVQQ [IFNA13] the value was 0.328.
As to QRLQCLLRRKIKFTSSKVTLEDRALGMSFFF [OR2C3], the median enrichment is 5.9.
In the case of YTKYLKMGIILI [ST8SIA6] it was 10.3.
In the case of WCSYLFFSSLS [LAMTOR5], the median enrichment came out at 13.3.

The values above are taken from the supplement of paper PMC11502859.
